This is an account of results in article PMC3079584, “A Cytoplasmic Complex Mediates Specific mRNA Recognition and Localization in Yeast” (PLoS Biology, 2011).

Assay [1] addresses T1, She2p (wild type) (Saccharomyces cerevisiae, UniProt P36068 1-246).
T1 construct: She2p, Saccharomyces cerevisiae, Gene ID 853728; also called She2p (wt); wild-type She2p
The experiment in a line: SEC; analytical; She2p, His-She3p C-terminal fragment and RNA (ternary complex formation, Figure 4E); which RNA is not told in the legend. To be noted: both partners purified. Background: SEC sorts molecules by how far they enter the pores of the column.

Assay [2] has as its target T1, She2p (wild type). Briefly: pull-down; His-tagged She3p (full length, point mutants, or MBP-She3p fragment-His) on nickel sepharose, no RNA; 7.5–10 µM of each protein, HNMD-buffer (20 mM HEPES pH 7.8, 200 mM NaCl, 2 mM MgCl2, 2 mM DTT) with 30–50 mM imidazole, 30–60 min at 4°C; SDS-PAGE, Coomassie. To be noted: both partners purified.

T1 sequence (P36068 whole entry): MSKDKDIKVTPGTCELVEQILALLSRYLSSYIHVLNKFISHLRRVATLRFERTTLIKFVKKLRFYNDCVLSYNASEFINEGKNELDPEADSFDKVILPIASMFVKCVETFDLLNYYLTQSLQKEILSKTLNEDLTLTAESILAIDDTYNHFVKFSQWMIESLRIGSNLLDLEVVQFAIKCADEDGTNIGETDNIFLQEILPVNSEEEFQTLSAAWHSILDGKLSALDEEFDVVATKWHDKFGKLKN

B1: His-She3p (334–425) (domain or fragment, Saccharomyces cerevisiae)
chain: GPLGSMGNSSNNKRRSFYTASPLLSSGSIPKSASPVLPGVKRTASVRKPSSSSSKTNVTHNNDPSTSPTISVPPGVTRTVSSTHKKKGNSMVVHGAQS
notes: it precedes G334 at the N-terminus of the construct
For B1, in the assay with She2p (wild type) [1], the binding result is “binds”.

B2: MBP-She3p(334–425)-His (domain or fragment, Saccharomyces cerevisiae, UniProt P38272 334-425, looked up)
chain: GNSSNNKRRSFYTASPLLSSGSIPKSASPVLPGVKRTASVRKPSSSSSKTNVTHNNDPSTSPTISVPPGVTRTVSSTHKKKGNSMVVHGAQS
Take B2: the binding result in the assay with She2p (wild type) [2] is given as “binds”.

B3: MBP-She3p(354–425)-His (domain or fragment, Saccharomyces cerevisiae, UniProt P38272 354-425, looked up)
chain: GSIPKSASPVLPGVKRTASVRKPSSSSSKTNVTHNNDPSTSPTISVPPGVTRTVSSTHKKKGNSMVVHGAQS
As for B3, the binding result with She2p (wild type) [2] is listed as “binds”.
